Among the data in patent publication US20230416329A1, “A PEPTIDE WITH DISULFIDE BONDS AND INHIBITORY ACTIVITY AGAINST SERINE PROTEASES, DERIVED HYBRID PEPTIDES THEREOF, AND USES THEREOF” (INSTITUTE OF MATERIA MEDICA , CHINESE ACADEMY OF MEDICAL …, priority 2020, published 2023) are Inhibitory rate (%) and residual trypsin activity values, retold here.

Experiment [1] concerns the target PCSK9 protein (UniProt Q8NBP7). As to the kind of experiment: PCSK9-LDLR in vitro binding assay kit, OD450/540; peptide 50 µM, PCSK9 75 ng/mL; inhibition of PCSK9 binding to LDLR.
In experiment [2] the target is bovine trypsin (bovine), P00760. As to the kind of experiment: cell-based or functional assay.
Chain of bovine trypsin (bovine), P00760 (P00760 24-246): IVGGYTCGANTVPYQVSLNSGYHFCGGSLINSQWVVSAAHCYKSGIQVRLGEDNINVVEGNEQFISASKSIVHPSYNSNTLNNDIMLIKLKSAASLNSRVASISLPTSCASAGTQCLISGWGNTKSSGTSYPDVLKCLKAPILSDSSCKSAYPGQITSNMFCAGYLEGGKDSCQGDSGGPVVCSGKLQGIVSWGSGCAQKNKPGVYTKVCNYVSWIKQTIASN

B1: PCSK9_13 (peptide)
peptide: GTNEALDNNCGRATKSIPPICFTVFTS
In the case of B1, the Inhibitory rate (%) in experiment [1] stood at 15.8%.

B2: BT1 (peptide)
peptide: GRCTKSIPPICFPD
modifications: not checked
On to B2, for which, in experiment [2], the residual trypsin activity at 0.0000098 µM BT1 was 102%, the residual trypsin activity at 0.000098 µM BT1 turned out to be 102%, the residual trypsin activity at 0.00098 µM BT1 was found to be 101% and the residual trypsin activity at 0.02439 µM BT1 amounted to 69.6%. For the same molecule, in experiment [2], the residual trypsin activity at 0.0488 µM BT1 is 24.1%, the residual trypsin activity at 0.098 µM BT1 turned out to be 3.3%, the residual trypsin activity at 0.98 µM BT1 turned out to be 0% and the residual trypsin activity at 9.76 µM BT1 worked out at 0%.
